The text below walks through data of patent publication US20090053242A1 (Amgen, published 2009).

The target in experiment [1] is human c-Mpl receptor (TPO receptor), full-length, transfected into IL-3 dependent murine 32D cells (human) (UniProt P40238). Briefly: cell-based or functional assay.
Experiment [2] has as its target T1, human c-Mpl receptor (TPO receptor), full-length, transfected into IL-3 dependent murine 32D cells (human, UniProt P40238 26-635).
T1 sequence (looked up): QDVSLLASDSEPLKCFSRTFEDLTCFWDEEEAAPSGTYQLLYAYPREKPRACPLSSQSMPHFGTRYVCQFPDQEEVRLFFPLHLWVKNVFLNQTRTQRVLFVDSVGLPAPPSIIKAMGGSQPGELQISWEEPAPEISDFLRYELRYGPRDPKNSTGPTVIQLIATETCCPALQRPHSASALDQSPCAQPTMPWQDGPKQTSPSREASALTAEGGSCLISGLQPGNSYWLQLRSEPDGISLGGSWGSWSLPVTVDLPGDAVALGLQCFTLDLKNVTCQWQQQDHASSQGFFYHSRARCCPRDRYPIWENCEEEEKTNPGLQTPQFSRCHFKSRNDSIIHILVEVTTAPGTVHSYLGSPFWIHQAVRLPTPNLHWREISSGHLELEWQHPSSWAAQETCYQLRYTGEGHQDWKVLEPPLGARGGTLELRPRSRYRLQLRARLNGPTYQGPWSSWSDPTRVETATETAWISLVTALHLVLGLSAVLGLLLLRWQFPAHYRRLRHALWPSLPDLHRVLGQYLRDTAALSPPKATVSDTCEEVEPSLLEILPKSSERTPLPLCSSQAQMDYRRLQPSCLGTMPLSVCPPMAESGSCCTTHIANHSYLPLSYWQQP
Briefly: cell-based or functional assay.

“TMP tandem dimer with linker of 9 glycine residues (peptide)” registered a potency in TPO-dependent cell-proliferation assay, against the monomer in experiment [1] above 1000 fold.

Take “TMP tandem dimer with linker of 10 glycine residues (peptide)”: the potency in TPO-dependent cell-proliferation assay, against the monomer in experiment [1] is above 1000 fold.

As to “TMP tandem dimer with linker of 14 glycine residues (peptide)”, in experiment [1], the potency in TPO-dependent cell-proliferation assay, against the monomer was above 1000 fold.

IEGPTLRQWLAARAGGIEGPTLRQWLAARA [TMP tandem dimer with linker of 2 glycine residues]: in experiment [2], the “potency in TPO-dependent cell-proliferation assay, against the monomer” value was above 1000 fold.

With IEGPTLRQWLAARAGIEGPTLRQWLAARA [TMP tandem dimer with linker of 1 glycine residue], in experiment [2], the “potency in TPO-dependent cell-proliferation assay, against the monomer” value was above 1000 fold.

Consider IEGPTLRQWLAARAGGGGGGIEGPTLRQWLAARA [TMP tandem dimer with linker of 6 glycine residues], for which the “potency in TPO-dependent cell-proliferation assay, against the monomer” value in experiment [2] was above 1000 fold.

For the molecule IEGPTLRQWLAARAGGGGGIEGPTLRQWLAARA [TMP tandem dimer with linker of 5 glycine residues], the “potency in TPO-dependent cell-proliferation assay, against the monomer” value in experiment [2] was above 1000 fold.

Take IEGPTLRQWLAARAGGGIEGPTLRQWLAARA [TMP tandem dimer with linker of 3 glycine residues]: in experiment [2], the “potency in TPO-dependent cell-proliferation assay, against the monomer” value was above 1000 fold.

With IEGPTLRQWLAARAGPNGIEGPTLRQWLAARA [peptide 13, TMP tandem dimer with GPNG linker], in experiment [2], the “activity in cell-proliferation assay, against the GGGG-linked analog” value was above 10 fold less active and the “potency in cell-proliferation assay, against the monomer” value was around 100 fold.

With IEGPTLRQWLAARAGGGGIEGPTLRQWLAARA [TMP tandem dimer with linker of 4 glycine residues], the “potency in TPO-dependent cell-proliferation assay, against the monomer” value in experiment [2] is above 1000 fold.

On to IEGPTLRQWLAARAIEGPTLRQWLAARA [TMP tandem dimer without linker (0 glycine residues)], for which the “potency in TPO-dependent cell-proliferation assay, against the monomer” value in experiment [2] was above 1000 fold.

For IEGPTLRQWLAARAGGGGGGGGIEGPTLRQWLAARA [TMP tandem dimer with linker of 8 glycine residues], the “potency in TPO-dependent cell-proliferation assay, against the monomer” value in experiment [2] was above 1000 fold.

On to IEGPTLRQWLAARAGGGGGGGIEGPTLRQWLAARA [TMP tandem dimer with linker of 7 glycine residues], for which, in experiment [2], the “potency in TPO-dependent cell-proliferation assay, against the monomer” value is above 1000 fold.
